This is an account of results in the Immune Epitope Database (IEDB).

Among the targets are HLA-A*11:01; HLA-A*68:01; HLA-A*31:01; HLA-A*03:01; HLA-A*33:01.
Common to all, as to assay: IEDB peptide-MHC binding, purified MHC/competitive/radioactivity; filed as Kd, often an IC50 or EC50 that approximates it; ≥ and ≤ were set here for values at or beyond the usual limits of such assays
Where [1] appears, read: source organism: Vaccinia virus WR.
[2] abbreviates: source organism: SARS coronavirus Tor2.
Setting [3] is: source organism: Dengue virus 1 Brazil/97-11/1997.
The mark [4] stands for this setting: source organism: Mammarenavirus machupoense.
Where [5] appears, read: source organism: Dengue virus 3 Martinique/1243/1999.
Where [6] appears, read: source organism: Dengue virus 2 Jamaica/1409/1983.
The mark [7] stands for this setting: source organism: Dengue virus 4 Philippines/H241/1956.
The mark [8] stands for this setting: source organism: Dengue virus 4 Dominica/814669/1981.
Setting [9] is: source organism: Mammarenavirus juninense.

For orientation: Kd means the free concentration of one partner at which half of the binding sites on the other are occupied at equilibrium, for simple one-to-one binding. TLDDLAIKQY: the Kd is 2920 nM in the assay with HLA-A*11:01 (setting [1]); ≥ 62400 nM in the assay with HLA-A*68:01 (setting [1]); ≥ 70000 nM in the assay with HLA-A*31:01 (setting [1]); 18400 nM in the assay with HLA-A*03:01 (setting [1]); ≥ 70000 nM with HLA-A*33:01 (setting [1]).
For the sequence SQILPDPLK, the Kd in the assay with HLA-A*11:01 (setting [2]) was 4550 nM; with HLA-A*68:01 (setting [2]) it was ≥ 50400 nM; with HLA-A*31:01 (setting [2]) it was ≥ 25300 nM; with HLA-A*03:01 (setting [2]), 17400 nM; in the assay with HLA-A*33:01 (setting [2]), ≥ 55900 nM.
With GLLSGQGPMK, the Kd with HLA-A*03:01 (setting [3]) was determined as 2.62 nM.
RAFDIYNEK: the Kd with HLA-A*11:01 (setting [2]) was 3.58 nM; in the assay with HLA-A*68:01 (setting [2]), 378 nM; in the assay with HLA-A*31:01 (setting [2]), 106 nM; with HLA-A*03:01 (setting [2]) it was 10.8 nM; in the assay with HLA-A*33:01 (setting [2]), ≥ 77700 nM.
As for LSTLNFNNLR, the Kd with HLA-A*11:01 (setting [1]) worked out at 207 nM; with HLA-A*68:01 (setting [1]), 12 nM; in the assay with HLA-A*31:01 (setting [1]), 36.8 nM; in the assay with HLA-A*03:01 (setting [1]) it was 3740 nM; in the assay with HLA-A*33:01 (setting [1]), 1530 nM.
QQQQGQTVTK: the Kd with HLA-A*11:01 (setting [2]) was 492 nM; with HLA-A*68:01 (setting [2]) it was 11300 nM; in the assay with HLA-A*31:01 (setting [2]) it was ≥ 27800 nM; with HLA-A*03:01 (setting [2]) it was 10200 nM; with HLA-A*33:01 (setting [2]) it was ≥ 70000 nM.
DTNLITCNDH: the Kd in the assay with HLA-A*11:01 (setting [4]) is ≥ 69700 nM; in the assay with HLA-A*68:01 (setting [4]), ≥ 70100 nM; in the assay with HLA-A*31:01 (setting [4]) it was ≥ 70000 nM; in the assay with HLA-A*03:01 (setting [4]) it was ≥ 70000 nM; with HLA-A*33:01 (setting [4]) it was ≥ 30800 nM.
For AAIDGEYRLK, in the assay with HLA-A*11:01 (setting [5]), the Kd was found to be 349 nM.
Consider VFHLYLQYIR, for which the Kd with HLA-A*11:01 (setting [2]) came to 1150 nM; with HLA-A*68:01 (setting [2]), 868 nM; with HLA-A*31:01 (setting [2]), 56.3 nM; with HLA-A*03:01 (setting [2]), 713 nM; with HLA-A*33:01 (setting [2]), 174 nM.
As to TSETMYLTMK, the Kd came to 111 nM with HLA-A*11:01 (setting [1]); 471 nM with HLA-A*68:01 (setting [1]); 2000 nM in the assay with HLA-A*31:01 (setting [1]); 1920 nM in the assay with HLA-A*03:01 (setting [1]); 11000 nM with HLA-A*33:01 (setting [1]).
RSTAIKVTK: the Kd with HLA-A*11:01 (setting [1]) is 6.77 nM; in the assay with HLA-A*68:01 (setting [1]) it was 13.9 nM; with HLA-A*31:01 (setting [1]), 1.26 nM; with HLA-A*03:01 (setting [1]), 214 nM; with HLA-A*33:01 (setting [1]) it was 11200 nM.
For the sequence LLDSIKMIY, the Kd with HLA-A*11:01 (setting [1]) was 17800 nM; with HLA-A*68:01 (setting [1]), 722 nM; with HLA-A*31:01 (setting [1]), 3350 nM; in the assay with HLA-A*03:01 (setting [1]), 4730 nM; with HLA-A*33:01 (setting [1]), ≥ 48600 nM.
In the case of SNMLSIINK, the Kd with HLA-A*11:01 (setting [5]) is 116 nM.
Take SLRPQPTELK: the Kd with HLA-A*03:01 (setting [6]) came to 3.01 nM.
Turning to MSLYMAISPK, the Kd with HLA-A*11:01 (setting [2]) is 0.199 nM; with HLA-A*68:01 (setting [2]), 10.7 nM; with HLA-A*31:01 (setting [2]) it was 69.4 nM; in the assay with HLA-A*03:01 (setting [2]), 0.256 nM; with HLA-A*33:01 (setting [2]), 1870 nM.
Consider NISIISIRPR, for which the Kd with HLA-A*11:01 (setting [1]) was 866 nM; in the assay with HLA-A*68:01 (setting [1]) it was 5.1 nM; with HLA-A*31:01 (setting [1]), 49.6 nM; in the assay with HLA-A*03:01 (setting [1]) it was 2640 nM; with HLA-A*33:01 (setting [1]) it was 285 nM.
In the case of EMILMKMKK, in the assay with HLA-A*68:01 (setting [7]), the Kd turned out to be 74.2 nM.
With LVTFKTAHAK, the Kd with HLA-A*11:01 (setting [3]) was determined as 478 nM; with HLA-A*03:01 (setting [3]), 26.2 nM.
For the sequence KVVKKLSVIR, the Kd was determined as 916 nM in the assay with HLA-A*11:01 (setting [1]); 482 nM with HLA-A*68:01 (setting [1]); 56.3 nM with HLA-A*31:01 (setting [1]); 5120 nM with HLA-A*03:01 (setting [1]); 3620 nM in the assay with HLA-A*33:01 (setting [1]).
Consider AIKILTGFR, for which the Kd with HLA-A*31:01 (setting [7]) turned out to be 54.7 nM.
For the sequence GFLSRNKKPR, the Kd with HLA-A*33:01 (setting [3]) is 1770 nM.
On to LMTLMKGASR, for which, in the assay with HLA-A*31:01 (setting [8]), the Kd was determined as 72.6 nM.
Consider MTSRMLLNR, for which the Kd with HLA-A*11:01 (setting [3]) is 40.4 nM; in the assay with HLA-A*68:01 (setting [3]) it was 54.6 nM; with HLA-A*31:01 (setting [3]) it was ≥ 23600 nM; in the assay with HLA-A*33:01 (setting [3]) it was 2.47 nM.
Regarding LMIVAKHER, the Kd in the assay with HLA-A*31:01 (setting [8]) is 49.8 nM.
For GVAMPNLYK, the Kd with HLA-A*68:01 (setting [2]) came out at 6.9 nM; in the assay with HLA-A*31:01 (setting [2]), 1650 nM; in the assay with HLA-A*33:01 (setting [2]), 14800 nM.
For the sequence RVSTVQQLTK, the dissociation constant Kd with HLA-A*11:01 (setting [6]) stood at 204 nM; in the assay with HLA-A*03:01 (setting [6]) it was 17.5 nM.
Regarding GILARWSSFK, the Kd with HLA-A*11:01 (setting [3]) turned out to be 29.4 nM; with HLA-A*03:01 (setting [3]), 2.06 nM.
Turning to VSTPQGLVK, the Kd with HLA-A*11:01 (setting [7]) turned out to be 6890 nM.
For GTVTMECSPR, the Kd in the assay with HLA-A*68:01 (setting [6]) turned out to be 89 nM.
TTLWEGSPGK: the Kd in the assay with HLA-A*11:01 (setting [3]) worked out at 85 nM.
RSCTLPPLR: the Kd with HLA-A*31:01 (setting [6]) stood at 4.6 nM.
With MWQLMYFHRR, the Kd with HLA-A*31:01 (setting [3]) was ≥ 25700 nM; with HLA-A*33:01 (setting [3]) it was 11.3 nM.
On to VSILLSSLLK, for which the Kd in the assay with HLA-A*11:01 (setting [3]) was 49.2 nM; in the assay with HLA-A*03:01 (setting [3]), 10.9 nM.
For LSKSEFNTYK, the Kd with HLA-A*11:01 (setting [3]) amounted to 557 nM.
As to KLYEEPLSK, the Kd with HLA-A*03:01 (source organism: Homo sapiens) was determined as 2.5 nM.
For the sequence RVIDPRRCMK, the Kd with HLA-A*31:01 (setting [6]) was found to be 4.4 nM.
With SLRTTTVTGK, in the assay with HLA-A*03:01 (setting [3]), the Kd stood at 6.38 nM.
Take GTMKIKDEER: the Kd with HLA-A*68:01 (setting [3]) came out at 165 nM.
EVMRSRWSR: the dissociation constant Kd in the assay with HLA-A*68:01 (setting [3]) stood at 13.1 nM; with HLA-A*33:01 (setting [3]) it was 4.12 nM.
For TTRMENLLWK, the Kd amounted to 103 nM with HLA-A*11:01 (setting [5]) and 102 nM with HLA-A*03:01 (setting [5]).
Consider AVAKCNLNH, for which the Kd in the assay with HLA-A*11:01 (setting [9]) is 230 nM; in the assay with HLA-A*68:01 (setting [9]), ≥ 46500 nM; in the assay with HLA-A*31:01 (setting [9]), 688 nM; in the assay with HLA-A*03:01 (setting [9]), 84.6 nM.
On to KTDFGFYQVK, for which the figures for the Kd with HLA-A*11:01 (setting [7]) and in the assay with HLA-A*03:01 (setting [7]) were 56 nM and 27.4 nM, respectively.
